Results on 21 molecules are retold here after patent publication US20180155451A1 (published 2018).

B1: GpH7-A5/GpH7-B3 variant P271_02A/GpL16-k0 (He Ab) (antibody, human IgG1, kappa)
heavy 1: not shown
heavy 2: not shown
light: DIVMTQSPLSLPVTPGEPASISCQASESLVHSNRNTYLHWYLQKPGQSPQLLIYKVSNRFSGVPDRFSGSGSGTDFTLKISRVEAEDVGVYYCSQNTHVPPTFGQGTKVEIERTVAAPSVFIFPPSDEQLKSGTASVVCLLNNFYPREAKVQWKVDNALQSGNSQESVTEQDSKDSTYSLSSTLTLSKADYEKHKVYACEVTHQGLSSPVTKSFNRGEC
notes: He Ab: alteration only in the GpH7-B3 chain
B2: GpH7-A5/GpH7-B3 variant A330_09D/GpL16-k0 (He Ab) (antibody, human IgG1, kappa)
heavy 1: not shown
heavy 2: not shown
light: DIVMTQSPLSLPVTPGEPASISCQASESLVHSNRNTYLHWYLQKPGQSPQLLIYKVSNRFSGVPDRFSGSGSGTDFTLKISRVEAEDVGVYYCSQNTHVPPTFGQGTKVEIERTVAAPSVFIFPPSDEQLKSGTASVVCLLNNFYPREAKVQWKVDNALQSGNSQESVTEQDSKDSTYSLSSTLTLSKADYEKHKVYACEVTHQGLSSPVTKSFNRGEC
notes: as for B1
B3: GpH7-A5/GpH7-B3 variant A330_08L/GpL16-k0 (He Ab) (antibody, human IgG1, kappa)
heavy 1: not shown
heavy 2: not shown
light: DIVMTQSPLSLPVTPGEPASISCQASESLVHSNRNTYLHWYLQKPGQSPQLLIYKVSNRFSGVPDRFSGSGSGTDFTLKISRVEAEDVGVYYCSQNTHVPPTFGQGTKVEIERTVAAPSVFIFPPSDEQLKSGTASVVCLLNNFYPREAKVQWKVDNALQSGNSQESVTEQDSKDSTYSLSSTLTLSKADYEKHKVYACEVTHQGLSSPVTKSFNRGEC
notes: as for B1
B4: GpH7-A5/GpH7-B3 variant A327_09D/GpL16-k0 (He Ab) (antibody, human IgG1, kappa)
heavy 1: not shown
heavy 2: not shown
light: DIVMTQSPLSLPVTPGEPASISCQASESLVHSNRNTYLHWYLQKPGQSPQLLIYKVSNRFSGVPDRFSGSGSGTDFTLKISRVEAEDVGVYYCSQNTHVPPTFGQGTKVEIERTVAAPSVFIFPPSDEQLKSGTASVVCLLNNFYPREAKVQWKVDNALQSGNSQESVTEQDSKDSTYSLSSTLTLSKADYEKHKVYACEVTHQGLSSPVTKSFNRGEC
notes: as for B1
B5: GpH7-B3 variant S298_07I/GpL16-k0 (Ho Ab) (antibody, human IgG1, kappa)
heavy: not shown
light: DIVMTQSPLSLPVTPGEPASISCQASESLVHSNRNTYLHWYLQKPGQSPQLLIYKVSNRFSGVPDRFSGSGSGTDFTLKISRVEAEDVGVYYCSQNTHVPPTFGQGTKVEIERTVAAPSVFIFPPSDEQLKSGTASVVCLLNNFYPREAKVQWKVDNALQSGNSQESVTEQDSKDSTYSLSSTLTLSKADYEKHKVYACEVTHQGLSSPVTKSFNRGEC
notes: Ho Ab: alteration in both H chains
B6: GpH7-B3 variant S298_14T/GpL16-k0 (Ho Ab) (antibody, human IgG1, kappa)
heavy: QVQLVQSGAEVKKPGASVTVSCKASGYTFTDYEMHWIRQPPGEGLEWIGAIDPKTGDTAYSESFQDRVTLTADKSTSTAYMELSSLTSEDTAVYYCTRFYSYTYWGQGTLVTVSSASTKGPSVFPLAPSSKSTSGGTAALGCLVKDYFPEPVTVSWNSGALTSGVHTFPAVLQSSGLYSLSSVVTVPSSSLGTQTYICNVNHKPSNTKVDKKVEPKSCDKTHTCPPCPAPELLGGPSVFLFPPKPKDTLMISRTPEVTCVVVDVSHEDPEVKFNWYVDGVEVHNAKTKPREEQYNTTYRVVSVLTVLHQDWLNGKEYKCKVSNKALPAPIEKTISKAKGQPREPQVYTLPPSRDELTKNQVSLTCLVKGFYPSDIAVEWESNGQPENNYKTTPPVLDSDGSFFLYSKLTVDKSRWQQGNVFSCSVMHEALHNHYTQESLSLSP
light: DIVMTQSPLSLPVTPGEPASISCQASESLVHSNRNTYLHWYLQKPGQSPQLLIYKVSNRFSGVPDRFSGSGSGTDFTLKISRVEAEDVGVYYCSQNTHVPPTFGQGTKVEIERTVAAPSVFIFPPSDEQLKSGTASVVCLLNNFYPREAKVQWKVDNALQSGNSQESVTEQDSKDSTYSLSSTLTLSKADYEKHKVYACEVTHQGLSSPVTKSFNRGEC
notes: as for B5
B7: GpH7-B3 variant S324_19Q/GpL16-k0 (Ho Ab) (antibody, human IgG1, kappa)
heavy: not shown
light: DIVMTQSPLSLPVTPGEPASISCQASESLVHSNRNTYLHWYLQKPGQSPQLLIYKVSNRFSGVPDRFSGSGSGTDFTLKISRVEAEDVGVYYCSQNTHVPPTFGQGTKVEIERTVAAPSVFIFPPSDEQLKSGTASVVCLLNNFYPREAKVQWKVDNALQSGNSQESVTEQDSKDSTYSLSSTLTLSKADYEKHKVYACEVTHQGLSSPVTKSFNRGEC
notes: as for B5
B8: GpH7-B3 variant S298_18N/GpL16-k0 (Ho Ab) (antibody, human IgG1, kappa)
heavy: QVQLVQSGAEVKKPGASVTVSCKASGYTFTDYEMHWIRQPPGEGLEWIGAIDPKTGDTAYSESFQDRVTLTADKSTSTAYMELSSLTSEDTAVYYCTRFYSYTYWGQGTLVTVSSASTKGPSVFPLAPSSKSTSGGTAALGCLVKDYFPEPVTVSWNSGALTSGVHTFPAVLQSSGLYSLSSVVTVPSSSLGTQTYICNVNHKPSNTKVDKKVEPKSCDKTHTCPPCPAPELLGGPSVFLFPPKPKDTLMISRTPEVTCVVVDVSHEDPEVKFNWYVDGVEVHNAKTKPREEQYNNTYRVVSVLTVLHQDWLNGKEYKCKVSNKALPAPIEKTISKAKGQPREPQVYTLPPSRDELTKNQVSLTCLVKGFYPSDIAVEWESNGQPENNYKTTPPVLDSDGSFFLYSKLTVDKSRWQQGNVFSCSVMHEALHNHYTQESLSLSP
light: DIVMTQSPLSLPVTPGEPASISCQASESLVHSNRNTYLHWYLQKPGQSPQLLIYKVSNRFSGVPDRFSGSGSGTDFTLKISRVEAEDVGVYYCSQNTHVPPTFGQGTKVEIERTVAAPSVFIFPPSDEQLKSGTASVVCLLNNFYPREAKVQWKVDNALQSGNSQESVTEQDSKDSTYSLSSTLTLSKADYEKHKVYACEVTHQGLSSPVTKSFNRGEC
notes: as for B5
B9: GpH7-B3 variant S324_08L/GpL16-k0 (Ho Ab) (antibody, human IgG1, kappa)
heavy: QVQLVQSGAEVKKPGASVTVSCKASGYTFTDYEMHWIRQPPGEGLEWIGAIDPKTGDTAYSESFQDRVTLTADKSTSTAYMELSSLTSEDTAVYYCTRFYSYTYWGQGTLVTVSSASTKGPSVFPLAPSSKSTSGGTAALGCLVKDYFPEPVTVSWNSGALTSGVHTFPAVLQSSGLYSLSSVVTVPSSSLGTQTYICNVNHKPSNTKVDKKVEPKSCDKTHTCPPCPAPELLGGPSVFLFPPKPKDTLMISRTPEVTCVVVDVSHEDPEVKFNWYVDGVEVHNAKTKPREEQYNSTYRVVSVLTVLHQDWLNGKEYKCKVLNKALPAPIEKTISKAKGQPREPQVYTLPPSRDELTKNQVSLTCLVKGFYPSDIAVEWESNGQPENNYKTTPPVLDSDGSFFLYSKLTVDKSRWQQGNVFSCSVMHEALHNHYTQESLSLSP
light: DIVMTQSPLSLPVTPGEPASISCQASESLVHSNRNTYLHWYLQKPGQSPQLLIYKVSNRFSGVPDRFSGSGSGTDFTLKISRVEAEDVGVYYCSQNTHVPPTFGQGTKVEIERTVAAPSVFIFPPSDEQLKSGTASVVCLLNNFYPREAKVQWKVDNALQSGNSQESVTEQDSKDSTYSLSSTLTLSKADYEKHKVYACEVTHQGLSSPVTKSFNRGEC
notes: as for B5
B10: GpH7-B3 variant S298_10E/GpL16-k0 (Ho Ab) (antibody, human IgG1, kappa)
heavy: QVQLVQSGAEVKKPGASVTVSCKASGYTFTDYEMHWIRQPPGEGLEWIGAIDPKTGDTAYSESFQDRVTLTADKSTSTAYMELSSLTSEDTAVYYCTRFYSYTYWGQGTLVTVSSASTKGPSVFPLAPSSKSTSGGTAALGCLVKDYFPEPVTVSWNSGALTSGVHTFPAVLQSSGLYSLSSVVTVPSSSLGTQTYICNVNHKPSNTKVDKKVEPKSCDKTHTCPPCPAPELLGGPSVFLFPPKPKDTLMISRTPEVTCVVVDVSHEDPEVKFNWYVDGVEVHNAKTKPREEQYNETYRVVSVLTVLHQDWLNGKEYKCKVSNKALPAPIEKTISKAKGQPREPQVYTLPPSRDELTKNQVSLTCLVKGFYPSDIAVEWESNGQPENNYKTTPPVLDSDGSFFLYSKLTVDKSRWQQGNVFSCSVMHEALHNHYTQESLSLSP
light: DIVMTQSPLSLPVTPGEPASISCQASESLVHSNRNTYLHWYLQKPGQSPQLLIYKVSNRFSGVPDRFSGSGSGTDFTLKISRVEAEDVGVYYCSQNTHVPPTFGQGTKVEIERTVAAPSVFIFPPSDEQLKSGTASVVCLLNNFYPREAKVQWKVDNALQSGNSQESVTEQDSKDSTYSLSSTLTLSKADYEKHKVYACEVTHQGLSSPVTKSFNRGEC
notes: as for B5
B11: GpH7-B3 variant S324_03V/GpL16-k0 (Ho Ab) (antibody, human IgG1, kappa)
heavy: not shown
light: DIVMTQSPLSLPVTPGEPASISCQASESLVHSNRNTYLHWYLQKPGQSPQLLIYKVSNRFSGVPDRFSGSGSGTDFTLKISRVEAEDVGVYYCSQNTHVPPTFGQGTKVEIERTVAAPSVFIFPPSDEQLKSGTASVVCLLNNFYPREAKVQWKVDNALQSGNSQESVTEQDSKDSTYSLSSTLTLSKADYEKHKVYACEVTHQGLSSPVTKSFNRGEC
notes: as for B5
B12: GpH7-B3 variant S337_02A/GpL16-k0 (Ho Ab) (antibody, human IgG1, kappa)
heavy: not shown
light: DIVMTQSPLSLPVTPGEPASISCQASESLVHSNRNTYLHWYLQKPGQSPQLLIYKVSNRFSGVPDRFSGSGSGTDFTLKISRVEAEDVGVYYCSQNTHVPPTFGQGTKVEIERTVAAPSVFIFPPSDEQLKSGTASVVCLLNNFYPREAKVQWKVDNALQSGNSQESVTEQDSKDSTYSLSSTLTLSKADYEKHKVYACEVTHQGLSSPVTKSFNRGEC
notes: as for B5
B13: GpH7-B3 variant S324_14T/GpL16-k0 (Ho Ab) (antibody, human IgG1, kappa)
heavy: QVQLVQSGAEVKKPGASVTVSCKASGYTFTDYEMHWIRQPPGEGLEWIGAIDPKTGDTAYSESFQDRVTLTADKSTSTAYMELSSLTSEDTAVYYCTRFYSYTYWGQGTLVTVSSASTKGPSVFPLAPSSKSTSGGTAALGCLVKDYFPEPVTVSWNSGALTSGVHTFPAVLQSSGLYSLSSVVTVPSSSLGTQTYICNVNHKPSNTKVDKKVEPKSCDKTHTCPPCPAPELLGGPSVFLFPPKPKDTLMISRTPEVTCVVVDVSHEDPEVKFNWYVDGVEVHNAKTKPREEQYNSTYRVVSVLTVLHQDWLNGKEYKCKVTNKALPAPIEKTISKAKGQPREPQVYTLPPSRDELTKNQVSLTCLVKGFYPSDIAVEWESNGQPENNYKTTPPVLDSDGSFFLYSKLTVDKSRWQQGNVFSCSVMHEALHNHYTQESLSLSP
light: DIVMTQSPLSLPVTPGEPASISCQASESLVHSNRNTYLHWYLQKPGQSPQLLIYKVSNRFSGVPDRFSGSGSGTDFTLKISRVEAEDVGVYYCSQNTHVPPTFGQGTKVEIERTVAAPSVFIFPPSDEQLKSGTASVVCLLNNFYPREAKVQWKVDNALQSGNSQESVTEQDSKDSTYSLSSTLTLSKADYEKHKVYACEVTHQGLSSPVTKSFNRGEC
notes: as for B5
B14: GpH7-B3 variant S337_01G/GpL16-k0 (Ho Ab) (antibody, human IgG1, kappa)
heavy: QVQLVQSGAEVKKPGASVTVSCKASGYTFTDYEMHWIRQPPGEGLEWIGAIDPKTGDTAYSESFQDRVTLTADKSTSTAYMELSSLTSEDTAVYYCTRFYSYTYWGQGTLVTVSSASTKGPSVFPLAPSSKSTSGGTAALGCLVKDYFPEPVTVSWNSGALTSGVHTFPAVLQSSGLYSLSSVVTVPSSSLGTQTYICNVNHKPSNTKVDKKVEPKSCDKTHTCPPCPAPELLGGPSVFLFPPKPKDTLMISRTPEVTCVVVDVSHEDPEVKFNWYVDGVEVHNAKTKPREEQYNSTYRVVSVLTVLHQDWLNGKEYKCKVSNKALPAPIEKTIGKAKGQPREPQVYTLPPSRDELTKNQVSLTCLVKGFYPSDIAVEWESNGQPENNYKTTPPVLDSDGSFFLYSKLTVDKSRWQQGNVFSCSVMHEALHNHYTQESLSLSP
light: DIVMTQSPLSLPVTPGEPASISCQASESLVHSNRNTYLHWYLQKPGQSPQLLIYKVSNRFSGVPDRFSGSGSGTDFTLKISRVEAEDVGVYYCSQNTHVPPTFGQGTKVEIERTVAAPSVFIFPPSDEQLKSGTASVVCLLNNFYPREAKVQWKVDNALQSGNSQESVTEQDSKDSTYSLSSTLTLSKADYEKHKVYACEVTHQGLSSPVTKSFNRGEC
notes: as for B5
B15: GpH7-B3 variant S298_15Y/GpL16-k0 (Ho Ab) (antibody, human IgG1, kappa)
heavy: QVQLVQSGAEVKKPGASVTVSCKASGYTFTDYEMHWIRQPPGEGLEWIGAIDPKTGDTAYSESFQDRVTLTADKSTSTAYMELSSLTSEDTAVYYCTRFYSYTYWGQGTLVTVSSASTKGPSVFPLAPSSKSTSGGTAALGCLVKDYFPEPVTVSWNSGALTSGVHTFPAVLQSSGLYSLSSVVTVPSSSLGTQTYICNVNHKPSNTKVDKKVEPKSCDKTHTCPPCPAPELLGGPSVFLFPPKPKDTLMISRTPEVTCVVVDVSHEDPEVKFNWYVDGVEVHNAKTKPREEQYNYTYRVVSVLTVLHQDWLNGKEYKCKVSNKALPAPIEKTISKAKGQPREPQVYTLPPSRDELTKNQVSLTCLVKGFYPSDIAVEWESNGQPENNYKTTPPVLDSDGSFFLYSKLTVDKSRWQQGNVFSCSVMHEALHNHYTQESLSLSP
light: DIVMTQSPLSLPVTPGEPASISCQASESLVHSNRNTYLHWYLQKPGQSPQLLIYKVSNRFSGVPDRFSGSGSGTDFTLKISRVEAEDVGVYYCSQNTHVPPTFGQGTKVEIERTVAAPSVFIFPPSDEQLKSGTASVVCLLNNFYPREAKVQWKVDNALQSGNSQESVTEQDSKDSTYSLSSTLTLSKADYEKHKVYACEVTHQGLSSPVTKSFNRGEC
notes: as for B5
B16: GpH7-B3 variant S337_03V/GpL16-k0 (Ho Ab) (antibody, human IgG1, kappa)
heavy: not shown
light: DIVMTQSPLSLPVTPGEPASISCQASESLVHSNRNTYLHWYLQKPGQSPQLLIYKVSNRFSGVPDRFSGSGSGTDFTLKISRVEAEDVGVYYCSQNTHVPPTFGQGTKVEIERTVAAPSVFIFPPSDEQLKSGTASVVCLLNNFYPREAKVQWKVDNALQSGNSQESVTEQDSKDSTYSLSSTLTLSKADYEKHKVYACEVTHQGLSSPVTKSFNRGEC
notes: as for B5
B17: GpH7-B3 variant S298_16H/GpL16-k0 (Ho Ab) (antibody, human IgG1, kappa)
heavy: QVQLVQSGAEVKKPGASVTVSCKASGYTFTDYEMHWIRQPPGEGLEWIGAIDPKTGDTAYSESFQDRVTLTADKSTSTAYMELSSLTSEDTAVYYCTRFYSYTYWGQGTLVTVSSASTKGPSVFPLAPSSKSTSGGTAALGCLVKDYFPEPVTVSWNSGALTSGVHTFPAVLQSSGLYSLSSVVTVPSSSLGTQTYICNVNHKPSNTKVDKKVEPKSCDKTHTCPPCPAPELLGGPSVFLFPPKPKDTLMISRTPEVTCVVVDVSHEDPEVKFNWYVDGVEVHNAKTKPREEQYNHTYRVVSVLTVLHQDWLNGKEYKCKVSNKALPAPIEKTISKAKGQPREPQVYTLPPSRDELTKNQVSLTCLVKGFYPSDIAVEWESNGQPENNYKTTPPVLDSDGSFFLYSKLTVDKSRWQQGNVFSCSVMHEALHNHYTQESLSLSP
light: DIVMTQSPLSLPVTPGEPASISCQASESLVHSNRNTYLHWYLQKPGQSPQLLIYKVSNRFSGVPDRFSGSGSGTDFTLKISRVEAEDVGVYYCSQNTHVPPTFGQGTKVEIERTVAAPSVFIFPPSDEQLKSGTASVVCLLNNFYPREAKVQWKVDNALQSGNSQESVTEQDSKDSTYSLSSTLTLSKADYEKHKVYACEVTHQGLSSPVTKSFNRGEC
notes: as for B5
B18: GpH7-B3 variant S324_20W/GpL16-k0 (Ho Ab) (antibody, human IgG1, kappa)
heavy: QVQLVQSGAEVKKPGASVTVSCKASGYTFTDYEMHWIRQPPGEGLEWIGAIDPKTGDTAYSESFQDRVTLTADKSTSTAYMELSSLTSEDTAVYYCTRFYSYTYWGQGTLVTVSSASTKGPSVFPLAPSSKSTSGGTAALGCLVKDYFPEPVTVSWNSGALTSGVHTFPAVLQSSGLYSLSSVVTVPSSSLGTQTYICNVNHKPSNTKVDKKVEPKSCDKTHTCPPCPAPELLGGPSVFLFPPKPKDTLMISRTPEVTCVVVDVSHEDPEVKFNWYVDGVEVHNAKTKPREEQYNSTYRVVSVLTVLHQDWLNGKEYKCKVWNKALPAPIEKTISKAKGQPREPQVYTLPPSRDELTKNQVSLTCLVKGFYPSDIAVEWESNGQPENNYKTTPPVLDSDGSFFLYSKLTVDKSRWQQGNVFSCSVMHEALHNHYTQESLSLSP
light: DIVMTQSPLSLPVTPGEPASISCQASESLVHSNRNTYLHWYLQKPGQSPQLLIYKVSNRFSGVPDRFSGSGSGTDFTLKISRVEAEDVGVYYCSQNTHVPPTFGQGTKVEIERTVAAPSVFIFPPSDEQLKSGTASVVCLLNNFYPREAKVQWKVDNALQSGNSQESVTEQDSKDSTYSLSSTLTLSKADYEKHKVYACEVTHQGLSSPVTKSFNRGEC
notes: as for B5
B19: GpH7-B3 variant S324_02A/GpL16-k0 (Ho Ab) (antibody, human IgG1, kappa)
heavy: not shown
light: DIVMTQSPLSLPVTPGEPASISCQASESLVHSNRNTYLHWYLQKPGQSPQLLIYKVSNRFSGVPDRFSGSGSGTDFTLKISRVEAEDVGVYYCSQNTHVPPTFGQGTKVEIERTVAAPSVFIFPPSDEQLKSGTASVVCLLNNFYPREAKVQWKVDNALQSGNSQESVTEQDSKDSTYSLSSTLTLSKADYEKHKVYACEVTHQGLSSPVTKSFNRGEC
notes: as for B5
B20: GpH7-B3 variant S298_08L/GpL16-k0 (Ho Ab) (antibody, human IgG1, kappa)
heavy: not shown
light: DIVMTQSPLSLPVTPGEPASISCQASESLVHSNRNTYLHWYLQKPGQSPQLLIYKVSNRFSGVPDRFSGSGSGTDFTLKISRVEAEDVGVYYCSQNTHVPPTFGQGTKVEIERTVAAPSVFIFPPSDEQLKSGTASVVCLLNNFYPREAKVQWKVDNALQSGNSQESVTEQDSKDSTYSLSSTLTLSKADYEKHKVYACEVTHQGLSSPVTKSFNRGEC
notes: as for B5
B21: GpH7-B3 variant S298_19Q/GpL16-k0 (Ho Ab) (antibody, human IgG1, kappa)
heavy: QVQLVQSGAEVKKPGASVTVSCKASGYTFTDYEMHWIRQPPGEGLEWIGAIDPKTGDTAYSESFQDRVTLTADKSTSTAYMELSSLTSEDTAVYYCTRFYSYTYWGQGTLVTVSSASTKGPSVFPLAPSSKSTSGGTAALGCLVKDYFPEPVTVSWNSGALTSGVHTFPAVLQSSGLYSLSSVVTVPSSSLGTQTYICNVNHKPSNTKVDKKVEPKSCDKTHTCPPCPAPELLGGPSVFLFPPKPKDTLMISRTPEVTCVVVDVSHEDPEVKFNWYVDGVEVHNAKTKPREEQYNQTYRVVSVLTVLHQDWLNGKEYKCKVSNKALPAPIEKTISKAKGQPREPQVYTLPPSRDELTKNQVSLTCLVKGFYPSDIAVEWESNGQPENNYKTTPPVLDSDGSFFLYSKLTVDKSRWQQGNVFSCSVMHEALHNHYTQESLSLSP
light: DIVMTQSPLSLPVTPGEPASISCQASESLVHSNRNTYLHWYLQKPGQSPQLLIYKVSNRFSGVPDRFSGSGSGTDFTLKISRVEAEDVGVYYCSQNTHVPPTFGQGTKVEIERTVAAPSVFIFPPSDEQLKSGTASVVCLLNNFYPREAKVQWKVDNALQSGNSQESVTEQDSKDSTYSLSSTLTLSKADYEKHKVYACEVTHQGLSSPVTKSFNRGEC
notes: as for B5

The target in one experiment is T1, FcγRIa extracellular domain with C-terminal His tag (human, UniProt P12314 16-292).
T1 construct: extracellular domain; Expressed in FreeStyle293 cells; analyte in Biacore; also called FcgRI; FcgRIa
T1 sequence (P12314 16-292): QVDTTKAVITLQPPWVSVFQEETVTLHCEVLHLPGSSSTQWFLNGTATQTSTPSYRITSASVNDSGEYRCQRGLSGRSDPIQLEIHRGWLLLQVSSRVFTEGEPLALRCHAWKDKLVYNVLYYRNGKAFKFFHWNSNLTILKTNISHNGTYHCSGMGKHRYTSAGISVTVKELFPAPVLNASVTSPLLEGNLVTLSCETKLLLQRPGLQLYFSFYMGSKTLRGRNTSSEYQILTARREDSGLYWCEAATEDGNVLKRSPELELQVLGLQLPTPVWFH
Description: SPR Biacore, antibody captured, FcγRIa analyte; vs GpH7-A5/GpH7-B3/GpL16-k0 = 100. On the technique in general: SPR reads the build-up and loss of mass on a sensor chip optically.
With B1, the He/Con_1a is 104 relative (control = 100).
Still for that read-out and setting: the result for B2 reads 109 relative (control = 100).
On the same count and under the same terms, the result for B3 reads 107 relative (control = 100); that for B4, 103 relative (control = 100).

The next experiment has as its target T1, FcγRIa extracellular domain with …. Description: SPR Biacore, antibody captured, FcγRIa analyte; vs GpH7-B3/GpL16-k0 = 100.
Consider B5, for which the Ho/Con_1a is 103 relative (control = 100).
On the same count and under the same terms, under B6 stands 106 relative (control = 100).
On the same count and under the same terms, under B7 stands 111 relative (control = 100); under B8, 104 relative (control = 100).
For B9, the Ho/Con_1a is 103 relative (control = 100).
On the same count and under the same terms, the result for B10 reads 106 relative (control = 100).
Still for that read-out and setting: the result for B11 reads 103 relative (control = 100).
Same read-out and setting: under B12 stands 103 relative (control = 100).
As for B13, the Ho/Con_1a is 112 relative (control = 100).
Still for that read-out and setting: under B14 stands 102 relative (control = 100); under B15, 103 relative (control = 100).
As for B16, the Ho/Con_1a was 105 relative (control = 100).
As to B17, the Ho/Con_1a was 107 relative (control = 100).
Regarding B18, the Ho/Con_1a was 112 relative (control = 100).
On the same count and under the same terms, under B19 stands 103 relative (control = 100); under B20, 104 relative (control = 100).
In the case of B21, the Ho/Con_1a was 105 relative (control = 100).
